# Measured values taken from patent publication US20220227861A1 (UNIVERSITY COLLEGE CARDIFF CONSULTANTS, published 2022).
# T1: ZIP10 (SLC39A10) zinc transporter, endogenous in cells (human, UniProt Q9ULF5 26-831)
# T1 construct: Endogenous ZIP10 of MCF-7 cells or of ZIP6-transfected cells
# T1 sequence: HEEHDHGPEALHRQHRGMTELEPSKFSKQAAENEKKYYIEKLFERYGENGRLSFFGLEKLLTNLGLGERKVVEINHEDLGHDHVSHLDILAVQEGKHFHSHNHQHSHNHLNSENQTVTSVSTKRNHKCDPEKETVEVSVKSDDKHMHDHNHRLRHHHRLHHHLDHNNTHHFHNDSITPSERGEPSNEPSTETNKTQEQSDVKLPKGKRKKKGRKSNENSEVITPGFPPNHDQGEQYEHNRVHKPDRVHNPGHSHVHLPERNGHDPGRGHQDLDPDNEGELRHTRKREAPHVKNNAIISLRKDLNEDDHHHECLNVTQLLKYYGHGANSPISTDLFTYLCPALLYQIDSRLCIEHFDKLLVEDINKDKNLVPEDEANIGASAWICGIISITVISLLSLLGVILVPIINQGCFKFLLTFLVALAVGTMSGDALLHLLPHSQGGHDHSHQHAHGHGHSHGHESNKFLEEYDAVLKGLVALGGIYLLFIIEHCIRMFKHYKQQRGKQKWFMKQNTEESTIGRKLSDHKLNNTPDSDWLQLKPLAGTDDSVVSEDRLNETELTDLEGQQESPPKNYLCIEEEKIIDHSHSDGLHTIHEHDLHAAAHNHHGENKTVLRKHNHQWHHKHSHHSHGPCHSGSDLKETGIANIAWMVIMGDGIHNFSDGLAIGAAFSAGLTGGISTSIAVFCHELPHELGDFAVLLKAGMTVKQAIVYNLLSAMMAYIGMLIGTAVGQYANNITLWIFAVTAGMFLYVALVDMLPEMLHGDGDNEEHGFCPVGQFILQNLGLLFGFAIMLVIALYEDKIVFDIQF
# B1: recombinant ZIP6 wild-type with C-terminal V5 tag (other)
# chain: FPQTTEKISPNWESGINVDLAISTRQYHLQQLFYRYGENNSLSVEGFRKLLQNIGIDKIKRIHIHHDHDHHSDHEHHSDHERHSDHEHHSEHEHHSDHDHHSHHNHAASGKNKRKALCPDHDSDSSGKDPRNSQGKGAHRPEHASGRRNVKDSVSASEVTSTVYNTVSEGTHFLETIETPRPGKLFPKDVSSSTPPSVTSKSRVSRLAGRKTNESVSEPRKGFMYSRNTNENPQECFNASKLLTSHGMGIQVPLNATEFNYLCPAIINQIDARSCLIHTSEKKAEIPPKTYSLQIAWVGGFIAISIISFLSLLGVILVPLMNRVFFKFLLSFLVALAVGTLSGDAFLHLLPHSHASHHHSHSHEEPAMEMKRGPLFSHLSSQNIEESAYFDSTWKGLTALGGLYFMFLVEHVLTLIKQFKDKKKKNQKKPENDDDVEIKKQLSKYESQLSTNEEKVDTDDRTEGYLRADSQEPSHFDSQQPAVLEEEEVMIAHAHPQEVYNEYVPRGCKNKCHSHFHDTLGQSDDLIHHHHDYHHILHHHHHQNHHPHSHSQRYSREELKDAGVATLAWMVIMGDGLHNFSDGLAIGAAFTEGLSSGLSTSVAVFCHELPHELGDFAVLLKAGMTVKQAVLYNALSAMLAYLGMATGIFIGHYAENVSMWIFALTAGLFMYVALVDMVPEMLHNDASDHGCSRWGYFFLQNAGMLLGFGIMLLISIFEHKIVFRINF
# notes: Expressed by transfection and immunoprecipitated from cell lysate with V5 antibody; also called ZIP6 wild-type (WT); ZIP6/LIV-1/SLC39A6 in pcDNA3.1/V5-His-TOPO; not shown: C-terminal V5 tag from vector pcDNA3.1/V5-His-TOPO
# Biological target: T1, ZIP10 (SLC39A10) zinc transporter, …
# Assay: immunoprecipitation with V5 antibody, Western blot for ZIP10
# Experimental: FIG. 2. […] [A] FACS cell cycle analysis confirms the increase in the G2/M population in nocodazole-treated cells, compared to control. […] Statistical significance is determined by Student's t test. *** p<0.001. [B] Control PLA using either our ZIP6-Y or our ZIP10 antibodies alone in nocodazole-treated MCF-7 cells produces only a few dots in mitotic cells (arrow), compared to FIG. 3D. Scale bar, 20 μm. [C] […] [D] FACS cell cycle analysis confirms the increase in the G2/M population in the non-adherent cells collected using the mitotic shake-off technique, compared to the adherent cells from the same dishes. […] Statistical significance is determined by Student's t test. *** p<0.001. [E] PLA using ZIP6-SC and pY⁷⁰⁵STAT3 antibodies together as well as individual control ZIP6-SC and […] antibodies in nocodazole-treated MCF-7 cells produces only few dots, compared to FIG. 5F.
# Cells were harvested, washed with PBS, lysed for 1 hour at 4° C. with lysis buffer pH7.6 (50 mM Tris, 150 mM NaCl, 5 mM EGTA and 1% Triton X-100) with protease inhibitor cocktail for mammalian cells (Signa-Aldrich) and phosphatase inhibitors (2 mM sodium orthovanadate and 50 mM sodium fluoride). Protein was measured using Bio-Rad/Bradford dye-binding protein microassay. Western Blot results of 40 μg/lane from three separate experiments were normalised to GAPDH values. […]
binder,measurement,value
B1,binding result,binds
